Measured values as given in US20240092841A1.

Legend:
Assay in all cases: co-IP with agarose-bound AvFc from A549 whole-cell lysate, mass spectrometry
[1] = target: Scavenger receptor class B member 1 (human) (UniProt Q8WTV0)
[2] = target: Prolow-density lipoprotein receptor-related protein 1 (human) (UniProt Q07954)
[3] = target: Laminin subunit beta-1 (human) (UniProt P07942)
[4] = target: Tetratricopeptide repeat protein 17 (human) (UniProt Q96AE7)
[5] = target: Sodium/potassium-transporting ATPase subunit beta-1 (human) (UniProt P05026)
Erlin-1 (human) = Erlin-1 (human) (UniProt O75477)
[6] = target: Cell cycle control protein 50A (human) (UniProt Q9NV96)
[7] = target: Sortilin-related receptor (human) (UniProt Q92673)
CD109 antigen (human) = CD109 antigen (human) (UniProt Q6YHK3)
Erlin-2 (human) = Erlin-2 (human) (UniProt O94905)
[8] = target: Endothelial protein C receptor (human) (UniProt Q9UNN8)
Integrin alpha-V (human) = Integrin alpha-V (human) (UniProt P06756)
Serpin H1 (human) = Serpin H1 (human) (UniProt P50454)
[9] = target: Contactin-associated protein-like 3 (human) (UniProt Q9BZ76)
[10] = target: Disintegrin and metalloproteinase domain-containing protein 9 (human) (UniProt Q13443)
[11] = target: Multidrug resistance-associated protein 1 (human) (UniProt P33527)
[12] = target: Insulin-like growth factor 1 receptor (human) (UniProt P08069)
Integrin alpha-2 (human) = Integrin alpha-2 (human) (UniProt P17301)
[13] = target: Metal transporter CNNM4 (human) (UniProt Q6P4Q7)
[14] = target: Transferrin receptor protein 1 (human) (UniProt P02786)
[15] = target: Galectin-3-binding protein (human) (UniProt Q08380)
[16] = target: Spectrin beta chain, non-erythrocytic 1 (human) (UniProt Q01082)
Polycystin-2 (human) = Polycystin-2 (human) (UniProt Q13563)
[17] = target: Solute carrier family 12 member 7 (human) (UniProt Q9Y666)
[18] = target: Disintegrin and metalloproteinase domain-containing protein 17 (human) (UniProt P78536)
Integrin alpha-5 (human) = Integrin alpha-5 (human) (UniProt P08648)
Mucin-5B (human) = Mucin-5B (human) (UniProt Q9HC84)

Chain of UniProt P50454 (P50454 19-418 limits assumed): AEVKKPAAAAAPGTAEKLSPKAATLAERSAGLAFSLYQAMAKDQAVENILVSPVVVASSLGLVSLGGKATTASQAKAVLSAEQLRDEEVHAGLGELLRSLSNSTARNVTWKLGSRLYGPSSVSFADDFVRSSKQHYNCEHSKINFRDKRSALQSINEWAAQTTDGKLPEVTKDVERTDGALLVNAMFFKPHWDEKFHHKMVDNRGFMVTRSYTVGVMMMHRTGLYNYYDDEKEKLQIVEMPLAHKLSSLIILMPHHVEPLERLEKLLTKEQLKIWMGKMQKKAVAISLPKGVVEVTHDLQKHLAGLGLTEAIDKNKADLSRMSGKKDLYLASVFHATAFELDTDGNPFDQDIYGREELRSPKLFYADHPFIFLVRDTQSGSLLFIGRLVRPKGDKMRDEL
Chain of UniProt P78536 (P78536 215-824 limits assumed): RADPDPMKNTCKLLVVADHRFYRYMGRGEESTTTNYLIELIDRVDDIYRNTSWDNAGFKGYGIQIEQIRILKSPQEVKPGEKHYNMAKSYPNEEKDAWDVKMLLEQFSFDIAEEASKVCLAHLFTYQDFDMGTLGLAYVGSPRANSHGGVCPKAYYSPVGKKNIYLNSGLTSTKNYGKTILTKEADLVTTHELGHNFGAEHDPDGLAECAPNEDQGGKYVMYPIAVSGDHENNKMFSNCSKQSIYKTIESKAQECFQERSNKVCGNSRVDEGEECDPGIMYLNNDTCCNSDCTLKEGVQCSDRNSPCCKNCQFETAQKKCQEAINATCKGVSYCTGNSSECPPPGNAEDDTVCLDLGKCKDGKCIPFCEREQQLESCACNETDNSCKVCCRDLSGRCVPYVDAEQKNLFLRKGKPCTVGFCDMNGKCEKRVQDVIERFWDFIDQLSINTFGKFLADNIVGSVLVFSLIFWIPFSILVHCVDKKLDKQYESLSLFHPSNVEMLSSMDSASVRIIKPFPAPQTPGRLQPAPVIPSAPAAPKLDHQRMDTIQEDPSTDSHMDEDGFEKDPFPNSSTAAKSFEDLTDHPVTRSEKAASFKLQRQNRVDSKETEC
Chain of UniProt Q08380 (Q08380 19-585 limits assumed): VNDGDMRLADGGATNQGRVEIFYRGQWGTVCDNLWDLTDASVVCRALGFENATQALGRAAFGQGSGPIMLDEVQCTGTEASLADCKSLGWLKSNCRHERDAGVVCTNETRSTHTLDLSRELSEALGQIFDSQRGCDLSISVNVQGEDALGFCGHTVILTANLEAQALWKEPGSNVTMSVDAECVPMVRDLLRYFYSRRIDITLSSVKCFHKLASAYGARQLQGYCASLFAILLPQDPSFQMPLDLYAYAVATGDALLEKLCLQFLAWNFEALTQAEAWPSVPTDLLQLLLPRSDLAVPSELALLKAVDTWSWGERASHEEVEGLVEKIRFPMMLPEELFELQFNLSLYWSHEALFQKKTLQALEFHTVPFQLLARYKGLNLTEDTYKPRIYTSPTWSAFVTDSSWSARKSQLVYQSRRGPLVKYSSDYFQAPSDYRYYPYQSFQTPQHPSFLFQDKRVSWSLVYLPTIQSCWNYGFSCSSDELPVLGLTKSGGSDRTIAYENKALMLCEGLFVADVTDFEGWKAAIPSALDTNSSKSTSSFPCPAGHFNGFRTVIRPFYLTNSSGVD
Chain of UniProt P07942 (P07942 22-1786 limits assumed): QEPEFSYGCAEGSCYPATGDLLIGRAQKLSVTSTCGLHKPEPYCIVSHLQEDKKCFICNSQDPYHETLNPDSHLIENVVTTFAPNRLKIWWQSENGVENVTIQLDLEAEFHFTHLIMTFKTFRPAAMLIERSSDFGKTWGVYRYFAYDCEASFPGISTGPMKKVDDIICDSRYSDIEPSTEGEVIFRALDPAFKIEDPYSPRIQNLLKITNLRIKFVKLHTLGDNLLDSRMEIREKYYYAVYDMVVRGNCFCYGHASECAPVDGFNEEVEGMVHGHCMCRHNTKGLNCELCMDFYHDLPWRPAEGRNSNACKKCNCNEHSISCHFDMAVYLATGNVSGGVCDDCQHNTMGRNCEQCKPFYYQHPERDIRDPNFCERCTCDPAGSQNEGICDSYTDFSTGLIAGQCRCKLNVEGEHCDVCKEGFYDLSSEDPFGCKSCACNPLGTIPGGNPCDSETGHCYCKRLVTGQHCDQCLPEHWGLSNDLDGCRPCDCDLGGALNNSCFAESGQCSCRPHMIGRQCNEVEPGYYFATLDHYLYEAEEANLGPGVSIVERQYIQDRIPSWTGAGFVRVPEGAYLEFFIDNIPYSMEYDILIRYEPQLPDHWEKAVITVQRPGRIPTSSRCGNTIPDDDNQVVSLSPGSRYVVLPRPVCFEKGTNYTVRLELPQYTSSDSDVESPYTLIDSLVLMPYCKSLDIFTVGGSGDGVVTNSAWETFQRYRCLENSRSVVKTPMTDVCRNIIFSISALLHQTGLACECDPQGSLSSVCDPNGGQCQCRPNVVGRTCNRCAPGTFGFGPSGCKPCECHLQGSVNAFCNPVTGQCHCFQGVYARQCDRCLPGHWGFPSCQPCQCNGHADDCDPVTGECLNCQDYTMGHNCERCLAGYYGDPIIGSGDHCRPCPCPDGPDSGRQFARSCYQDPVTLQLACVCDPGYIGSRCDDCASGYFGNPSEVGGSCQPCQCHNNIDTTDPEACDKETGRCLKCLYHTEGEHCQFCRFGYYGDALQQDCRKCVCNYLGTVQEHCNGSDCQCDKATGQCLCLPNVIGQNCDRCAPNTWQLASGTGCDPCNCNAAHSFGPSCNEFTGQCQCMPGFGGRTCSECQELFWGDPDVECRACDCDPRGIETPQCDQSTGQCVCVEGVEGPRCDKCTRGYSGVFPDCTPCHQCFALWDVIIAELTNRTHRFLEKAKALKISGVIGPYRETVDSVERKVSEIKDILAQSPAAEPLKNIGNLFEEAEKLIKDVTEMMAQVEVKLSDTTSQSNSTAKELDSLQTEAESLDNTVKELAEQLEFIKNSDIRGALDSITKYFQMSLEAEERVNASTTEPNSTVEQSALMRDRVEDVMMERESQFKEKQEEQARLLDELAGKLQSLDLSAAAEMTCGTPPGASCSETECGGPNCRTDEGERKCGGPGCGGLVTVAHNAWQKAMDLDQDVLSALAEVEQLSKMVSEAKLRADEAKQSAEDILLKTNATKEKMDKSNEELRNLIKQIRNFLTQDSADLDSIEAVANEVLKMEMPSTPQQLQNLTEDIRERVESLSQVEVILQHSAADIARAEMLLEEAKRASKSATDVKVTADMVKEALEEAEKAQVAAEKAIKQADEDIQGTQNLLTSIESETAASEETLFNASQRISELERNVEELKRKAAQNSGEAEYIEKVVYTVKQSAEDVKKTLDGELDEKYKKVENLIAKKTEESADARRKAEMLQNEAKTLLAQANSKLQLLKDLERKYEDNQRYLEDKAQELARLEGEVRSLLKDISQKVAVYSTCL
Chain of UniProt P06756 (P06756 other isoform, or with tags, fused parts or gaps limits assumed): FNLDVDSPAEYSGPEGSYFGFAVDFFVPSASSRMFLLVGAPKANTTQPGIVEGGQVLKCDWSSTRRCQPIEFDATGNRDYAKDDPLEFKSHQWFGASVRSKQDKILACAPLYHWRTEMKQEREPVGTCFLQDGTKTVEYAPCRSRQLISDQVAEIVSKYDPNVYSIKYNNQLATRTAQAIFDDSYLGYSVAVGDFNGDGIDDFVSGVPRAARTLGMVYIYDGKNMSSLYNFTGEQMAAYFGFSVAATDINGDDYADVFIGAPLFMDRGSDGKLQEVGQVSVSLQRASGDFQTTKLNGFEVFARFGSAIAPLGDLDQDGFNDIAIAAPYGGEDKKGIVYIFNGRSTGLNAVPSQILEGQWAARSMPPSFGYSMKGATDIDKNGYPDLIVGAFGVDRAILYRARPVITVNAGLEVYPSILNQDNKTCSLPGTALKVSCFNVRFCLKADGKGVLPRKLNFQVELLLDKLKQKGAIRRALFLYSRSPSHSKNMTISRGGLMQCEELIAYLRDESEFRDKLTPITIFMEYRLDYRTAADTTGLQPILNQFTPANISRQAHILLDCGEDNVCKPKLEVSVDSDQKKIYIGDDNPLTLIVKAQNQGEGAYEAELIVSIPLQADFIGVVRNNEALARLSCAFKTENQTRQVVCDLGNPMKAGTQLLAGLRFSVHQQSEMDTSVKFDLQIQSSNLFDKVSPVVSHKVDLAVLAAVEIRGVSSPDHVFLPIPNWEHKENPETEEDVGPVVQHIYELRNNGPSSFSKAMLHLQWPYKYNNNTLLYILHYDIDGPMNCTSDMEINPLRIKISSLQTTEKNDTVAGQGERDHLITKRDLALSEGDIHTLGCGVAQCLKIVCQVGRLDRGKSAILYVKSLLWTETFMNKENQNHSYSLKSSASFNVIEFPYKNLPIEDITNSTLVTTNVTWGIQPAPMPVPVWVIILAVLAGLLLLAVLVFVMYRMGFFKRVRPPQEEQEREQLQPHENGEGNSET
Chain of UniProt Q9NV96 (Q9NV96 2-361 limits assumed): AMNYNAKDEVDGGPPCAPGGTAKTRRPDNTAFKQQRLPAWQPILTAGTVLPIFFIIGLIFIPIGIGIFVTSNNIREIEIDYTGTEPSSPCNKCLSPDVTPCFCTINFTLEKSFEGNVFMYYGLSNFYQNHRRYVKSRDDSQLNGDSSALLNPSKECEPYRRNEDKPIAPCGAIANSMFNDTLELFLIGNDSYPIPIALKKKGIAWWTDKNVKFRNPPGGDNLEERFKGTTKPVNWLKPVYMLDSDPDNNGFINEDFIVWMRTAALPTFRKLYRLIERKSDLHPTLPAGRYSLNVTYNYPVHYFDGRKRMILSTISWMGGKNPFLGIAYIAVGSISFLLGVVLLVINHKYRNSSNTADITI
Chain of UniProt O94905 (O94905 whole entry): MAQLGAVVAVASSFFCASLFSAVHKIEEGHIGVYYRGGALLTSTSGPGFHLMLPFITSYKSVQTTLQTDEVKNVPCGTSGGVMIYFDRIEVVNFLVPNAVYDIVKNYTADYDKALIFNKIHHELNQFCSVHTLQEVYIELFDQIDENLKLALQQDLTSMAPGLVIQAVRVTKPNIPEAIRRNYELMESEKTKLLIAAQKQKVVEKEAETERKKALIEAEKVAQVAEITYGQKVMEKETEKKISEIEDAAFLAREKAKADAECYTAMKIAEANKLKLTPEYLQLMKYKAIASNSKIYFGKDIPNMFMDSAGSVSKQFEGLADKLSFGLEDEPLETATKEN

Avaren-Fc (AvFc) (Fc fusion)
Percentage of Total Spectra (%) [1]: 0.056% | Percentage of Total Spectra (%) [2]: 0.056% | Percentage of Total Spectra (%) [3]: 0.41% | Percentage of Total Spectra (%) [4]: 0.13% | Percentage of Total Spectra (%) [5]: 0.056% | Percentage of Total Spectra (%) (Erlin-1 (human)): 0.11% | Percentage of Total Spectra (%) [6]: 0.021% | Percentage of Total Spectra (%) [7]: 0.12% | Percentage of Total Spectra (%) (CD109 antigen (human)): 0.13% | Percentage of Total Spectra (%) (Erlin-2 (human)): 0.15% | Percentage of Total Spectra (%) [8]: 0.014% | Percentage of Total Spectra (%) (Integrin alpha-V (human)): 0.15% | Percentage of Total Spectra (%) (Serpin H1 (human)): 0.063% | Percentage of Total Spectra (%) [9]: 0.11% | Percentage of Total Spectra (%) [10]: 0.11% | Percentage of Total Spectra (%) [11]: 0.07% | Percentage of Total Spectra (%) [12]: 0.091% | Percentage of Total Spectra (%) (Integrin alpha-2 (human)): 0.11% | Percentage of Total Spectra (%) [13]: 0.091% | Percentage of Total Spectra (%) [14]: 0.16% | Percentage of Total Spectra (%) [15]: 0.07% | Percentage of Total Spectra (%) [16]: 0.11% | Percentage of Total Spectra (%) (Polycystin-2 (human)): 0.17% | Percentage of Total Spectra (%) [17]: 0.021% | Percentage of Total Spectra (%) [18]: 0.056% | Percentage of Total Spectra (%) (Integrin alpha-5 (human)): 0.035% | Percentage of Total Spectra (%) (Mucin-5B (human)): 0.14%
